Measurements taken from US20210071139A1.
“And” between values parts separate entries of the source, which are not always exact repeats. Identical values can stand only once.

Target: TOX (UniProt Q66JW3)
Experiment: anti-TOX IP from EL4 nuclear extract, LC-MS/MS, MiST vs IgG control

Utp11l, sequence (Q9CZJ1 whole entry): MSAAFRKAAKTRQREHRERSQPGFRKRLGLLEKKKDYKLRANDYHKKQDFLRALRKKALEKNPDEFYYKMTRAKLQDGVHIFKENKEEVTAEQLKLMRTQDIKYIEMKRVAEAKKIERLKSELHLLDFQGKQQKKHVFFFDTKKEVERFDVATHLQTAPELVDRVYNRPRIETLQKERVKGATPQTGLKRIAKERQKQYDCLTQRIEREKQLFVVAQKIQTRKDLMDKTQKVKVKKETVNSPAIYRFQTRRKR
Tmem160, sequence (Q9D938 97-188): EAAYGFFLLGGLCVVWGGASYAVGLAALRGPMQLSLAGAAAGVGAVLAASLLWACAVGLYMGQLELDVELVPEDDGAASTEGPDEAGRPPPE
TOX, sequence (Q66JW3 whole entry): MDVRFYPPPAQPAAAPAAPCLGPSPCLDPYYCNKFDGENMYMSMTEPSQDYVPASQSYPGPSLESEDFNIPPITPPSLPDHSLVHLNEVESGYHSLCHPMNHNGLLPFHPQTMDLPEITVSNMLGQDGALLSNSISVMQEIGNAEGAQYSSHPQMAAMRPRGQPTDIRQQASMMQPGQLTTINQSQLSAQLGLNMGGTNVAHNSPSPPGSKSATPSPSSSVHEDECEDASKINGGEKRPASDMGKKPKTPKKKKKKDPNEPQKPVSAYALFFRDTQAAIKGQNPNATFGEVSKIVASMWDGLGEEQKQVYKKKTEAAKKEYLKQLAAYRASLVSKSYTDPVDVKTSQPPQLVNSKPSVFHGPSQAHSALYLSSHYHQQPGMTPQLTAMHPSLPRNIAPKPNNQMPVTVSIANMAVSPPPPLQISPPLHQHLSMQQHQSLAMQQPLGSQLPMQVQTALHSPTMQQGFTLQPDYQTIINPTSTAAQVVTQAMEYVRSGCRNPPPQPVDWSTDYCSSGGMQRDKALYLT

Substance	Abundance	MiST Score	Reproducibility	Specificity
Abcf1 (from UniProt Q6P542 1-837)	1.12e-05	0.76	0.747	0.773
Abcf2 (from UniProt Q99LE6 1-628)	2.89e-05	0.756	0.917	0.69
Actr5 (from UniProt Q80US4 1-605)	9e-06	0.753	0.979	0.658
Ap2a1 (from UniProt P17426 1-977)	2.47e-06	0.754	0.846	0.719
Bclaf1 (from UniProt Q8K019 1-919)	6.73e-05	0.756	0.872	0.71
Ccdc86 (from UniProt Q9JJ89 1-426)	3.82e-05	0.751	0.964	0.662
Cnot10 (from UniProt Q8BH15 2-744)	8.51e-06	0.751	0.946	0.669
Cwc15 (from UniProt Q9JHS9 2-229)	9.35e-05	0.756	0.814	0.736
Dld (from UniProt O08749 36-509) (enzyme)	1.87e-05	0.76	0.898	0.704
Ebna1bp2 (from UniProt Q9D903 1-306)	9.4e-05	0.752	0.984	0.654
Eif3a (from UniProt P23116 1-1344)	1.17e-05	0.764	0.795	0.757
Gatad2a (from UniProt Q8CHY6 1-629)	1.98e-05	0.76	0.908	0.7
Gatad2b (from UniProt Q8VHR5 1-594)	1.65e-05	0.752	0.863	0.708
Nol7 (from UniProt Q9D7Z3 1-254)	0.000128	0.757	0.972	0.666
Pabpn1 (from UniProt Q8CCS6 2-302)	8.22e-05	0.759	0.992	0.66
Paxbp1 (from UniProt P58501 1-919)	1.83e-06	0.75	0.516	0.862
Pnn (from UniProt O35691 2-725)	7.35e-05	0.762	0.681	0.805
Pop1	2.18e-06	0.754	0.906	0.693
Raver1 (from UniProt Q9CW46 2-748)	4.89e-05	0.762	0.839	0.734
Rbm25 (from UniProt B2RY56 1-838)	9.24e-06	0.755	0.601	0.831
Rrp1 (from UniProt P56183 1-494)	9e-06	0.753	0.976	0.659
Rsl1d1 (from UniProt Q8BVY0 1-452)	0.000211	0.759	0.984	0.665
Soat1 (from UniProt Q61263 1-540) (enzyme)	5.75e-06	0.762	0.249	1
Thoc6 (from UniProt Q5U4D9 1-341)	3.97e-05	0.76	0.994	0.661
Top3b (from UniProt Q9Z321 1-862) (enzyme)	8.1e-07	0.752	0.541	0.854
Yme1l1 (from UniProt O88967 1-715) (enzyme)	1.45e-05	0.75	0.988	0.65

Target: TOX (UniProt Q66JW3)
Experiment: TOX IP-MS, EL4 nuclear extract, MiST; row of the bait itself

Substance	Abundance	MiST Score	Reproducibility	Specificity
anti-TOX antibody (Abcam, ab155768)	0.00704	0.976	0.964	0.99

Target: TOX (UniProt Q66JW3)
Experiment: TOX co-IP from EL4 nuclear extract, LC-MS/MS, MiST

Substance	Abundance	MiST Score	Reproducibility	Specificity
Orc3 (from UniProt Q9JK30 1-715)	7.41e-07	0.848	0.528	1
Rbm28 (from UniProt Q8CGC6 2-750)	8.77e-06	0.855	0.958	0.815
Rrbp1 (from UniProt Q99PL5 1-1605)	1.36e-06	0.834	0.675	0.913
Samd1 (from UniProt D3YXK1 1-519)	2.47e-06	0.829	0.886	0.811
Skap2 (from UniProt Q3UND0 1-358)	4.76e-06	0.845	0.516	1
Sorbs1 (from UniProt Q62417 1-1290)	1.52e-05	0.829	0.997	0.76
Sptbn1 (from UniProt Q62261 2-2363)	1.19e-05 and 1.09e-05	0.84	0.996	0.777
Sugp1 (from UniProt Q8CH02 1-643)	7.71e-06	0.832	0.906	0.807
Tmem160	3.49e-05	0.846	0.94	0.812
Tmem214 (from UniProt Q8BM55 2-687)	1.26e-06	0.85	0.532	1
Trrap (from UniProt Q80YV3 1-2565)	9.36e-08	0.847	0.524	1
Utp11l	4.22e-05	0.856	0.553	1
Wdr82 (from UniProt Q8BFQ4 1-313)	0.00013	0.846	0.951	0.807
Zcchc8 (from UniProt Q9CYA6 2-709)	2.87e-06	0.834	0.483	1
Zmym4 (from UniProt A2A791 2-1549)	1.92e-06	0.841	0.503	1
